# Assay results published in EP4768039A1, “PHARMACEUTICAL COMPOSITION AND USE THEREOF” (Shanghai Regenelead Therapies Co., Ltd., priority 2023, dated 2025).
# Target: Human VEGF-A protein (human) (UniProt P15692)
# Assay: cell-based or functional assay
# Details: not given
# Chain of UniProt P15692 (P15692 other isoform, or with tags, fused parts or gaps limits assumed): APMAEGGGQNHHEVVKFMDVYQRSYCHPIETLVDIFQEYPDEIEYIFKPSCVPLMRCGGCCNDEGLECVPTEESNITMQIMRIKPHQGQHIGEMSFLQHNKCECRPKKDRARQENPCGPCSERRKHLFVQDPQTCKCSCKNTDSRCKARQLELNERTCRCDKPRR
row,Compound,VEGF-A IC50 (nM); VEGF-A-induced NFAT-RE Luc2P KDR reporter cells [nM]
1,PR1010(R1D2-R2D3-linker-R2D2-R2D3-Fc) (from UniProt P01857 104-330) (Fc fusion),2.71
2,PR1094(R1D2-R2D3-linker-R2D2(C162V)-R2D3-Fc) (from UniProt P01857 104-330) (Fc fusion),0.34
3,PR1109(R1D2-R2D3-linker-R2D2(V219I)-R2D3-Fc) (from UniProt P01857 104-330) (Fc fusion),0.18
4,PR1114(R1D2-R2D3-linker-R2D2-R2D3(N274I)-Fc) (from UniProt P01857 104-330) (Fc fusion),0.36
5,PR1115(R1D2-R2D3-linker-R2D2-R2D3(R275L)-Fc) (from UniProt P01857 104-330) (Fc fusion),0.28
6,PR1118(R1D2-R2D3-linker-R2D2-R2D3(D276Q)-Fc) (from UniProt P01857 104-330) (Fc fusion),0.22
7,PR1119(R1D2-R2D3-linker-R2D2-R2D3(L277R)-Fc) (from UniProt P01857 104-330) (Fc fusion),0.14
8,PR1120(R1D2-R2D3-linker-R2D2-R2D3(K278D)-Fc) (from UniProt P01857 104-330) (Fc fusion),0.38
9,PR1122(R1D2-R2D3-linker-R2D2-R2D3(K278E)-Fc) (from UniProt P01857 104-330) (Fc fusion),0.36
10,PR1123(R1D2-R2D3-linker-R2D2-R2D3(Q280E)-Fc) (from UniProt P01857 104-330) (Fc fusion),0.21
11,PR1124(R1D2-R2D3-linker-R2D2-R2D3(S283T)-Fc) (from UniProt P01857 104-330) (Fc fusion),0.29
12,PR1125(R1D2-R2D3-linker-R2D2-R2D3(E284H)-Fc) (from UniProt P01857 104-330) (Fc fusion),0.23
13,PR1126(R1D2-R2D3-linker-R2D2-R2D3(F288Y)-Fc) (from UniProt P01857 104-330) (Fc fusion),0.7
14,PR1129(R1D2-R2D3-linker-R2D2-R2D3(M314S)-Fc) (from UniProt P01857 104-330) (Fc fusion),0.67
15,PR1136(R1D2-R2D3-linker-R2D2-R2D3(L313R)-Fc) (from UniProt P01857 104-330) (Fc fusion),0.14
16,PR1141(R1D2-R2D3-linker-R2D2(C162V)-R2D3(N274F)-Fc) (from UniProt P01857 104-330) (Fc fusion),1.14

row,Compound,VEGF-A IC50 (nM); VEGF-A-induced NFAT-RE Luc2P KDR reporter cells [nM]
1,PR1142(R1D2-R2D3-linker-R2D2(C162V)-R2D3(N274I)-Fc) (from UniProt P01857 104-330) (Fc fusion),0.99
2,PR1143(R1D2-R2D3-linker-R2D2(C162V)-R2D3(R275L)-Fc) (from UniProt P01857 104-330) (Fc fusion),0.84
3,PR1146(R1D2-R2D3-linker-R2D2(C162V)-R2D3(L289Y)-Fc) (from UniProt P01857 104-330) (Fc fusion),0.98
4,PR1147(R1D2-R2D3-linker-R2D2(C162V)-R2D3(L313Y)-Fc) (from UniProt P01857 104-330) (Fc fusion),1.16
5,PR1148(R1D2-R2D3-linker-R2D2(C162V)-R2D3(L277R/L289Y)-Fc) (from UniProt P01857 104-330) (Fc fusion),1.49
6,PR1149(R1D2-R2D3-linker-R2D2(C162V/Y221S/R222K)-R2D3-Fc) (from UniProt P01857 104-330) (Fc fusion),0.82
7,PR1150(R1D2-R2D3-linker-R2D2(C162V)-R2D3(L313R)-Fc) (from UniProt P01857 104-330) (Fc fusion),0.81
8,PR1165(R1D2-R2D3-linker-R2D2(C162I)-R2D3-Fc) (from UniProt P01857 104-330) (Fc fusion),0.92
9,PR1166(R1D2-R2D3-linker-R2D2(C162L)-R2D3-Fc) (from UniProt P01857 104-330) (Fc fusion),1.12
10,PR1167(R1D2-R2D3-R2D2(C162V)-R2D3(N274F/S283T)-Fc) (Fc fusion),1.1
11,PR1168(R1D2-R2D3-R2D2(C162V/Y221S/R222K)-R2D3(N274F)-Fc) (Fc fusion),1.15
12,PR1169(R1D2-R2D3-R2D2(C162V/Y221S/R222K)-R2D3(S283T)-Fc) (Fc fusion),0.9
13,PR1170(R1D2-R2D3-R2D2(C162V/Y221S/R222K)-R2D3(N274F/S283T)-Fc) (Fc fusion),0.89
14,PR1171(R1D2-R2D3-linker-R2D2(C162V)-R2D3(N274F/S283T)-Fc) (from UniProt P01857 104-330) (Fc fusion),1.09
15,PR1172(R1D2-R2D3-linker-R2D2(C162V/Y221S/R222K)-R2D3(N274F)-Fc) (from UniProt P01857 104-330) (Fc fusion),0.92
16,PR1173(R1D2-R2D3-linker-R2D2(C162V/Y221S/R222K)-R2D3(S283T)-Fc) (from UniProt P01857 104-330) (Fc fusion),1.08

# System: not listed separately
# Assay: Temperature sensitivity of pH of different buffers
# Type: physicochemical
# Details: buffer working solutions, 2 °C to 30 °C; FIG. 17
# Description: • 1. About 3 mL of each of different buffers was added to a centrifuge tube. The pH value in the process of cooling from 30 °C to about 2 °C was measured with a pH meter in an ice-water bath and recorded, and then the pH change in the process of heating the solution from 2 °C to 30 °C was recorded. Table 30. Buffering ranges of different buffers
row,Compound,pH decrease as the temperature increased by 1 °C
1,"OCC(CO)(CO)NCCCNC(CO)(CO)CO [BTP, bis-tris propane]",about 0.024
2,"O=S(=O)(O)CCN1CCN(CCO)CC1 [HEPES, N-2-hydroxyethylpiperazine-N'-2-ethanesulfonic acid]",about 0.001
3,NC(CO)(CO)CO [Tris],about 0.024

# System: not given
# Assay: not given
# Details: pH range of the buffer system; cited from earlier work
row,Compound,Buffering range
1,"OCC(CO)(CO)NCCCNC(CO)(CO)CO [BTP, bis-tris propane]",6.3-9.5
2,"O=S(=O)(O)CCN1CCN(CCO)CC1 [HEPES, N-2-hydroxyethylpiperazine-N'-2-ethanesulfonic acid]",6.8-8.2
3,NC(CO)(CO)CO [Tris],7.0-9.2
